This test addresses HLA-A*02:01 (Homo sapiens, UniProt P04439, D140Y/D185E/D98H/E176V/E277Q/G131W/G231S/I119V/I121R/I166T/I218V/L300P/L318F/N151K/N90K/P208A/P217A/Q86G/Q94H/R138H/R169H/T345S). As to the kind of experiment: MHC binding assay (UV-ligand exchange, beta2m ELISA). The conditions noted are these: binding to HLA-A*02:01 ranged by peptide exchange yield (UV-ligand exchange, β2m ELISA). In short, it runs like this: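 UV-cleavable ligand in peptide-MHC complexes was exchanged for test peptide. Exchange yield came from an ELISA on streptavidin-captured complexes diluted 100 fold, detecting β2m with HRP anti-β2m (2 ug/ml, 1 h, 37° C.), TMB, A450.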
(An ELISA detects its analyte on a solid surface through an enzyme-linked reagent.)
“209 (KLIESKHEV; listed as Homo sapiens) [compound 209]”: the Peptide exchange entry is reported as ““++” (≥20% = ++)”.

For “210 (LLLNAVLTV; listed as Homo sapiens) [compound 210]”, the Peptide exchange result is recorded as ““++” (≥20% = ++)”.

“211 (LLWPGAALL; listed as Homo sapiens) [compound 211]”: the Peptide exchange result is ““++” (≥20% = ++)”.

In the case of “212 (ALWDQDNLSV; listed as Homo sapiens) [compound 212]”, the Peptide exchange entry was ““++” (≥20% = ++)”.

For “214 (FLLDLDPLLL; listed as Homo sapiens) [compound 214]”, the Peptide exchange entry was ““+++” (≥50 = +++)”.

For the substance “215 (QLINHLHAV; listed as Homo sapiens) [compound 215]”, the Peptide exchange result is reported as ““+++” (≥50 = +++)”.

On to “216 (NLWEDPYYL; listed as Homo sapiens) [compound 216]”, for which the Peptide exchange result is given as ““+++” (≥50 = +++)”.

For “217 (ALIHPVSTV; listed as Homo sapiens) [compound 217]”, the Peptide exchange entry is ““++” (≥20% = ++)”.

With “218 (SALEELVNV; listed as Homo sapiens) [compound 218]”, the Peptide exchange entry is ““++” (≥20% = ++)”.

On to “219 (KLSDIGITV; listed as Homo sapiens) [compound 219]”, for which the Peptide exchange result is recorded as ““+++” (≥50 = +++)”.

For the substance “220 (LLQKFVPEI; listed as Homo sapiens) [compound 220]”, the Peptide exchange entry was ““++” (≥20% = ++)”.

Turning to “221 (ALYEEGLLL; listed as Homo sapiens) [compound 221]”, the Peptide exchange result is reported as ““++” (≥20% = ++)”.

As to “222 (NLIENVQRL; listed as Homo sapiens) [compound 222]”, the Peptide exchange result is recorded as ““++” (≥20% = ++)”.

Consider “223 (ALLENIALYL; listed as Homo sapiens) [compound 223]”, for which the Peptide exchange result was ““+++” (≥50 = +++)”.

Regarding “224 (TLIDAQWVL; listed as Homo sapiens) [compound 224]”, the Peptide exchange result is recorded as ““+++” (≥50 = +++)”.

Consider “225 (SLLKVLPAL; listed as Homo sapiens) [compound 225]”, for which the Peptide exchange result is ““+++” (≥50 = +++)”.

In the case of “226 (MLYVVPIYL; listed as Homo sapiens) [compound 226]”, the Peptide exchange result is on record as ““++” (≥20% = ++)”.

For the substance “227 (ALMNTLLYL; listed as Homo sapiens) [compound 227]”, the Peptide exchange result was ““++” (≥20% = ++)”.

Take “228 (AMQEYIAVV; listed as Homo sapiens) [compound 228]”: the Peptide exchange entry is ““++” (≥20% = ++)”.

As to “229 (RLPGPLGTV; listed as Homo sapiens) [compound 229]”, the Peptide exchange entry is listed as ““++” (≥20% = ++)”.

Take “230 (ILVDWLVEV; listed as Homo sapiens) [compound 230]”: the Peptide exchange result was ““+” (≥10% = +)”.

As for “231 (FLSPQQPPLLL; listed as Homo sapiens) [compound 231]”, the Peptide exchange result was ““++” (≥20% = ++)”.

Take “232 (ALLEAQDVELYL; listed as Homo sapiens) [compound 232]”: the Peptide exchange result is on record as ““++” (≥20% = ++)”.

As for “233 (VLSETLYEL; listed as Homo sapiens) [compound 233]”, the Peptide exchange entry is reported as ““++” (≥20% = ++)”.

Consider “234 (ALMEDTGRQML; listed as Homo sapiens) [compound 234]”, for which the Peptide exchange result is ““++” (≥20% = ++)”.

In the case of “235 (YLNDLHEVLL; listed as Homo sapiens) [compound 235]”, the Peptide exchange result was ““++++” (≥75% = ++++)”.

For the substance “236 (GLLEAKVSL; listed as Homo sapiens) [compound 236]”, the Peptide exchange result was ““+++” (≥50 = +++)”.

As to “237 (ALLEASGTLLL; listed as Homo sapiens) [compound 237]”, the Peptide exchange result was ““++++” (≥75% = ++++)”.

For “238 (YLISFQTHI; listed as Homo sapiens) [compound 238]”, the Peptide exchange entry is listed as ““+++” (≥50 = +++)”.

With “239 (AAFAGKLLSV; listed as Homo sapiens) [compound 239]”, the Peptide exchange result was ““+++” (≥50 = +++)”.

With “240 (ILLEQAFYL; listed as Homo sapiens) [compound 240]”, the Peptide exchange result is ““+++” (≥50 = +++)”.

For the substance “241 (SLVEVNPAYSV; listed as Homo sapiens) [compound 241]”, the Peptide exchange result is given as ““+++” (≥50 = +++)”.

Consider “242 (AIAYILQGV; listed as Homo sapiens) [compound 242]”, for which the Peptide exchange entry was ““++” (≥20% = ++)”.

For the substance “243 (LLLNELPSV; listed as Homo sapiens) [compound 243]”, the Peptide exchange entry is listed as ““+++” (≥50 = +++)”.

For “244 (SLFGGTEITI; listed as Homo sapiens) [compound 244]”, the Peptide exchange entry is recorded as ““+++” (≥50 = +++)”.

Take “245 (SMIDDLLGV; listed as Homo sapiens) [compound 245]”: the Peptide exchange result was ““+++” (≥50 = +++)”.

On to “246 (LLWEVVSQL; listed as Homo sapiens) [compound 246]”, for which the Peptide exchange result was ““+++” (≥50 = +++)”.

Consider “248 (FLFPNQYVDV; listed as Homo sapiens) [compound 248]”, for which the Peptide exchange entry was ““+++” (≥50 = +++)”.

As for “249 (LLDGFLVNV; listed as Homo sapiens) [compound 249]”, the Peptide exchange result is reported as ““+++” (≥50 = +++)”.

Consider “250 (ALSEEGLLVYL; listed as Homo sapiens) [compound 250]”, for which the Peptide exchange result is given as ““+++” (≥50 = +++)”.

As to “251 (ALYTGFSILV; listed as Homo sapiens) [compound 251]”, the Peptide exchange result is listed as ““++” (≥20% = ++)”.

As to “252 (LLIGTDVSL; listed as Homo sapiens) [compound 252]”, the Peptide exchange result was ““+++” (≥50 = +++)”.

For “253 (GLDAATATV; listed as Homo sapiens) [compound 253]”, the Peptide exchange entry is recorded as ““++” (≥20% = ++)”.

Take “254 (TLLAFIMEL; listed as Homo sapiens) [compound 254]”: the Peptide exchange result is reported as ““+++” (≥50 = +++)”.

“255 (VLASYNLTV; listed as Homo sapiens) [compound 255]”: the Peptide exchange entry was ““+++” (≥50 = +++)”.

“256 (FLPPEHTIVYI; listed as Homo sapiens) [compound 256]”: the Peptide exchange result is ““+++” (≥50 = +++)”.

On to “257 (SIFSAFLSV; listed as Homo sapiens) [compound 257]”, for which the Peptide exchange result is listed as ““+++” (≥50 = +++)”.

As to “258 (ELAERVPAI; listed as Homo sapiens) [compound 258]”, the Peptide exchange entry is reported as ““++” (≥20% = ++)”.

For the substance “261 (YVLEFLEEI; listed as Homo sapiens) [compound 261]”, the Peptide exchange result is listed as ““++” (≥20% = ++)”.

As to “262 (LLWGDLIWL; listed as Homo sapiens) [compound 262]”, the Peptide exchange result is on record as ““+++” (≥50 = +++)”.

Turning to “263 (LLVSNLDFGV; listed as Homo sapiens) [compound 263]”, the Peptide exchange result is reported as ““+++” (≥50 = +++)”.

Take “264 (SLQEQLHSV; listed as Homo sapiens) [compound 264]”: the Peptide exchange result is reported as ““+++” (≥50 = +++)”.

Consider “265 (LLFGGTKTV; listed as Homo sapiens) [compound 265]”, for which the Peptide exchange result was ““++” (≥20% = ++)”.

Regarding “266 (KITDTLIHL; listed as Homo sapiens) [compound 266]”, the Peptide exchange result is recorded as ““+++” (≥50 = +++)”.

In the case of “267 (ALQDFLLSV; listed as Homo sapiens) [compound 267]”, the Peptide exchange entry is on record as ““+++” (≥50 = +++)”.

Regarding “269 (RVLEVGALQAV; listed as Homo sapiens) [compound 269]”, the Peptide exchange result is on record as ““++” (≥20% = ++)”.

For the substance “270 (LLLDEEGTFSL; listed as Homo sapiens) [compound 270]”, the Peptide exchange result is on record as ““++” (≥20% = ++)”.

“271 (LVYPLELYPA; listed as Homo sapiens) [compound 271]”: the Peptide exchange result is listed as ““+++” (≥50 = +++)”.

As to “272 (ALGNTVPAV; listed as Homo sapiens) [compound 272]”, the Peptide exchange result is on record as ““+++” (≥50 = +++)”.

Turning to “273 (NLFQSVREV; listed as Homo sapiens) [compound 273]”, the Peptide exchange entry was ““++” (≥20% = ++)”.

For the substance “274 (SLLFSLFEA; listed as Homo sapiens) [compound 274]”, the Peptide exchange entry is listed as ““++” (≥20% = ++)”.

Consider “275 (YLVYILNEL; listed as Homo sapiens) [compound 275]”, for which the Peptide exchange entry is listed as ““++” (≥20% = ++)”.

With “276 (ALFTFSPLTV; listed as Homo sapiens) [compound 276]”, the Peptide exchange entry is reported as ““+++” (≥50 = +++)”.

In the case of “277 (LLPPLESLATV; listed as Homo sapiens) [compound 277]”, the Peptide exchange result is ““++” (≥20% = ++)”.

Take “278 (QLLDVVLTI; listed as Homo sapiens) [compound 278]”: the Peptide exchange entry is recorded as ““++” (≥20% = ++)”.

For “279 (ALWGGTQPLL; listed as Homo sapiens) [compound 279]”, the Peptide exchange entry is reported as ““++” (≥20% = ++)”.

With “280 (VLPDPEVLEAV; listed as Homo sapiens) [compound 280]”, the Peptide exchange result is reported as ““+++” (≥50 = +++)”.

On to “281 (ILRESTEEL; listed as Homo sapiens) [compound 281]”, for which the Peptide exchange entry is ““+++” (≥50 = +++)”.

Regarding “282 (LLADVVPTT; listed as Homo sapiens) [compound 282]”, the Peptide exchange result is recorded as ““+++” (≥50 = +++)”.

Take “283 (ALYIGDGYVIHLA; listed as Homo sapiens) [compound 283]”: the Peptide exchange entry is reported as ““+++” (≥50 = +++)”.

With “284 (ILLSQTTGV; listed as Homo sapiens) [compound 284]”, the Peptide exchange entry is ““+++” (≥50 = +++)”.

For the origin of these results see patent publication US10738094B2, “Peptides and combination of peptides for use in immunotherapy against ovarian cancer and other cancers” (immatics biotechnologies GmbH, priority 2015, dated 2020).
